Laboratory results published in patent publication US6365711 (Harvard, dated 2002).

Molecular target: T1, Myc-tagged Δ473-534 (Xenopus, UniProt P70056 61-472)
T1 construct: also called deletion of an additional 33 C-terminal amino acids
T1 sequence: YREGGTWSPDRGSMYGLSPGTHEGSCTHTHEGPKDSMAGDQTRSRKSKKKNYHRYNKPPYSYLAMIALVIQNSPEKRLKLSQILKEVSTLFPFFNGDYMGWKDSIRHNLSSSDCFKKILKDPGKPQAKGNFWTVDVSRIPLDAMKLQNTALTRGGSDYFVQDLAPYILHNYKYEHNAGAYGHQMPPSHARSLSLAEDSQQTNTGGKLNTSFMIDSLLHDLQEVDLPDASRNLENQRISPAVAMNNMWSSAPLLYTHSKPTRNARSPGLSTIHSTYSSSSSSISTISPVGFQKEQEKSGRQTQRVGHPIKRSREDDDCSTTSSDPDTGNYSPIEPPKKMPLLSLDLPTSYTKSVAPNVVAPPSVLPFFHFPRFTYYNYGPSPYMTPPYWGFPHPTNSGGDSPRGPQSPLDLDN
Assay: FAST-1 deletion mutant co-expressed with tagged Smad in Xenopus embryos

binding result: no binding
B1: Myc-tagged Smad2 (other, not shown: small tags and cut ends)
chain: MSSILPFTPPVVKRLLGWKKSASGTTGAGGDEQNGQEEKWCEKAVKSLVKKLKKTGQLDELEKAITTQNCNTKCVTIPSTCSEIWGLSTANTIDQWDTTGLYSFSEQTRSLDGRLQVSHRKGLPHVIYCRLWRWPDLHSHHELKAIENCEYAFNLKKDEVCVNPYHYQRVETPVLPPVLVPRHTEILTELPPLDDYTHSIPENTNFPAGIEPQSNYIPETPPPGYISEDGETSDQQLNQSMDTGSPAELSPSTLSPVNHNLDLQPVTYSEPAFWCSIAYYELNQRVGETFHASQPSLTVDGFTDPSNSERFCLGLLSNVNRNATVEMTRRHIGRGVRLYYIGGEVFAECLSDSAIFVQSPNCNQRYGWHPATVCKIPPGCNLKIFNNQEFAALLAQSVNQGFEAVYQLTRMCTIRMSFVKGWGAEYRRQTVTSTPCWIELHLNGPLQWLDKVLTQMGSPSVRCSSMS
notes: Expressed from injected RNA in Xenopus embryos; also called Myc-Smad2
